{
  "source": "patent US10512676B2",
  "about": "“Formulations comprising recombinant acid alpha-glucosidase” (Amicus Therapeutics, Inc., priority 2016, dated 2019)",
  "key": {"[1]": {"test": "Apparent plasma half-life in vivo"}, "CIMPR": {"target": "CIMPR (Homo sapiens, UniProt P11717)", "sequence (P11717 41-2491, species assumed)": "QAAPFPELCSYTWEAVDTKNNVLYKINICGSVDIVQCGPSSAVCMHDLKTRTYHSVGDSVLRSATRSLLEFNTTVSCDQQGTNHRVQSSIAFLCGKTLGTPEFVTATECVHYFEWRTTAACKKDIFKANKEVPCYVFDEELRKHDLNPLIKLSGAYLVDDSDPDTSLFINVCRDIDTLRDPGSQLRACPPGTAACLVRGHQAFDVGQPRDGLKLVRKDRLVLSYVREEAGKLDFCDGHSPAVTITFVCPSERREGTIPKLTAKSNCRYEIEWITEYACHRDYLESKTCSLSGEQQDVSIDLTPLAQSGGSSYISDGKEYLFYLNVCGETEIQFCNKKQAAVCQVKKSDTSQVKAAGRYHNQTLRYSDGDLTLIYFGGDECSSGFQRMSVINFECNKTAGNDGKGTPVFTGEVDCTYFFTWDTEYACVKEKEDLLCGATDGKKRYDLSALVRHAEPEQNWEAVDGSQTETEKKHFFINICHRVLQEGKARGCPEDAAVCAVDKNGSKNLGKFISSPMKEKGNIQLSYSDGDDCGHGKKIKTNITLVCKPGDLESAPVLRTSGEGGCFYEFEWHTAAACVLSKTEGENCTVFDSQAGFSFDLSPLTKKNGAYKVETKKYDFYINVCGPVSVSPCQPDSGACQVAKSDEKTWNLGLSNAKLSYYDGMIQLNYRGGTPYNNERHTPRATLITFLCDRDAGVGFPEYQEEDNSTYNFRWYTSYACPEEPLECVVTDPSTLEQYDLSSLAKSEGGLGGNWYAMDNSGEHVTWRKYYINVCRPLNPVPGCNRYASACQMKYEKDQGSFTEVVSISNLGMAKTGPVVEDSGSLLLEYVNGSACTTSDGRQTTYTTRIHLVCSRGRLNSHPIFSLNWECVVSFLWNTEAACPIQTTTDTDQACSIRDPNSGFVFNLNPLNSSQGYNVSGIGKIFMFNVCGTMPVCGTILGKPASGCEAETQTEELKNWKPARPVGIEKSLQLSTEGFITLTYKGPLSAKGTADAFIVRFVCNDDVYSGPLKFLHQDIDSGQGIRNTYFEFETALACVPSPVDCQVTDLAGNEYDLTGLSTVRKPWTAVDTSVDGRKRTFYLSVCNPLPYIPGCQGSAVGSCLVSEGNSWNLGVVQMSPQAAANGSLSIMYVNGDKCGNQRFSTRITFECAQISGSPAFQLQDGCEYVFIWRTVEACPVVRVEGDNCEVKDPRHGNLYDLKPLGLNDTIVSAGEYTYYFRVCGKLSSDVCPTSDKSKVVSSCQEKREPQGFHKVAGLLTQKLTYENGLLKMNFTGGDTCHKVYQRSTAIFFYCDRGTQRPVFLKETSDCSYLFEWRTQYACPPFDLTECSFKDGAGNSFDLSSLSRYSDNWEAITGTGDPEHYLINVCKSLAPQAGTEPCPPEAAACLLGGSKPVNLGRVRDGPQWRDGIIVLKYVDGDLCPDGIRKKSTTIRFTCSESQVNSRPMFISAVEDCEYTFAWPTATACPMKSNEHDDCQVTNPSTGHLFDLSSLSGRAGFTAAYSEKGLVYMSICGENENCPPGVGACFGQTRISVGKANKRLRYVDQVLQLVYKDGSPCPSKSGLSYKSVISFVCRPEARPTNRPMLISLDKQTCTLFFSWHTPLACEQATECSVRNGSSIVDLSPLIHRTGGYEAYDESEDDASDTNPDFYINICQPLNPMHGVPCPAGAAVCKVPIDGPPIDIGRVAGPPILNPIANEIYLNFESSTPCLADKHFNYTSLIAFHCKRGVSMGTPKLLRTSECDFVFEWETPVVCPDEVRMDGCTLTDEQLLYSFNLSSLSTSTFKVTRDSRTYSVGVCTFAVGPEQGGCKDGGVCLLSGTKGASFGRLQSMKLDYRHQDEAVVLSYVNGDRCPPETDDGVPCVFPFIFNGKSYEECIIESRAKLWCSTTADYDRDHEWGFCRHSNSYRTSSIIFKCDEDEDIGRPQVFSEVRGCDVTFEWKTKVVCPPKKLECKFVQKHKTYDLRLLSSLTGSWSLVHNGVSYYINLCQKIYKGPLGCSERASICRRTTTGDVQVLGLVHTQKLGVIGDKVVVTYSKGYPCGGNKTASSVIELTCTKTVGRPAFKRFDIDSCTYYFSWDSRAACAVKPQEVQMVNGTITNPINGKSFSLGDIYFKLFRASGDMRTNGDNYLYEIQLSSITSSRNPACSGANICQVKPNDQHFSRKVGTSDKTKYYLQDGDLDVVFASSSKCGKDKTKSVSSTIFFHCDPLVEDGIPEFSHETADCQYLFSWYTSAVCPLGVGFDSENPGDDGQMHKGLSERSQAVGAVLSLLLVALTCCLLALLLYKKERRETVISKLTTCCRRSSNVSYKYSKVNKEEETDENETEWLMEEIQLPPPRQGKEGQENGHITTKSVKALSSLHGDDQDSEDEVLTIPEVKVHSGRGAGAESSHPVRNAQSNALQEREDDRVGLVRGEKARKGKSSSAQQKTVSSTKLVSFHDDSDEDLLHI", "test": "CIMPR plate binding assay", "description": "In addition to having a greater percentage of rhGAA that can bind to the CIMPR, it is important to understand the quality of that interaction. […] Briefly, CIMPR-coated plates were used to capture GAA. Varying concentrations of rhGAA were applied to the immobilized receptor and unbound rhGAA was washed off. The amount of remaining rhGAA was determined by GAA activity."}, "[2]": {"tested_on": "Pompe fibroblasts and skeletal muscle myoblasts", "test": "Internalization by Pompe fibroblasts and skeletal muscle myoblasts", "format": "cell-based"}, "whole human blood": {"tested_on": "whole human blood", "test": "Hemolysis in whole human blood", "format": "cell-based", "conditions": "for percent hemolysis / OD540 With Blood / % Hemolysis: 1 hour at 37° C.; for % Hemolysis: water = 100%", "description": "A series of dilutions of blood (1:2, 1:3, 1:4, 1:5, and 1:10) from a human donor were prepared in saline. […] Four types of samples were tested: the test article, placebo, positive control and negative control. […] The placebo was the same as the test article except there was no ATB200 rhGAA.\nSamples were incubated without agitation for 1 hour at 37° C. After incubation, the tubes were centrifuged for 10 minutes at approximately 100× g at room temperature. The amount of hemoglobin in the supernatant of each sample was analyzed spectrophotometrically at 540 nm.\nThe percent hemolysis for the test article was determined by the formula: […]\nThe percent hemolysis of water plus blood is 100%. Saline was the negative control. Hemolysis less than or equal to 10% was considered insignificant. The percent hemolysis was calculated for each concentration of the test article and for the placebo."}, "Gaa knockout mice": {"tested_on": "Gaa knockout mice", "test": "Muscle physiology and morphology in Gaa-knockout mice (LAMP1, PAS, vacuoles)", "format": "in vivo, mouse", "description": "Control mice were treated with vehicle alone. Soleus, quadriceps and diaphragm tissue is harvested two weeks after the last dose of recombinant human acid α-glucosidase. […] Semi-thin sections of quadriceps muscle embedded in epoxy resin (Epon) were stained with methylene blue and observed by […] (1000×) to determine the extent of the presence of vacuoles. Quadriceps muscle samples were analyzed immunohistochemically to determine levels of the autophagy markers microtubule-associated protein 1A/1B-light chain 3 phosphatidylethanolamine conjugate (LC3A II) and p62, the insulin-dependent glucose transporter GLUT4 and the insulin-independent glucose transporter GLUT1. […] Control mice were treated with vehicle alone. Cardiac muscle tissue was harvested two weeks after the last dose of recombinant human acid α-glucosidase and analyzed for glycogen levels, by staining with periodic acid—Schiff reagent (PAS), and for lysosome proliferation, by measuring levels of LAMPI."}, "Gaa KO mice": {"tested_on": "Gaa KO mice", "test": "Muscle function in Gaa-knockout mice, 12 biweekly administrations (grip strength, wire hang)", "format": "in vivo, mouse", "conditions": "6 months, with or without miglustat", "description": "In FIG. 18A, * indicates statistically significant compared to Lumizyme® alone (p<0.05, 2-sided t-test). In FIGS. 19A-19G, * indicates statistically significant compared to Lumizyme® alone (p<0.05, multiple comparison using Dunnett's method under one-way ANOVA analysis)."}, "[3]": {"test": "Flocculation study: test article mixed with equal volume of saline (macro, micro, pellet)", "parameters": "key: 0=negative; 1=very slight precipitation or pellet; 2=minimal precipitation or pellet; 3=moderate precipitation or pellet; 4=significant precipitation or pellet", "description": "(§1) Test article dosing solutions (3 concentrations) and the placebo (3 concentrations) were mixed with equal volumes of human plasma and serum from a donor. […] The placebo was the same as the test article except there was no ATB200 rhGAA.\n(§2) One ml of each dose of test article or placebo, was mixed with an equal volume of plasma, serum and saline. Samples were incubated for 30 minutes at room temperature. After incubation the tubes were examined macroscopically and microscopically for precipitation or coagulation. An aliquot from each tube was centrifuged at 14,000 rpm in a microcentrifuge for 10 minutes. Each tube was examined for the presence or absence of a pellet. Precipitation/coagulation and pellets were scored as follows: • 0=negative • 1=very slight precipitation or pellet • 2=minimal precipitation or pellet • 3=moderate precipitation or pellet • 4=significant precipitation or pellet"}, "[4]": {"test": "Flocculation in human serum", "parameters": "key to Serum Macro (precipitation/coagulation score) / Serum Micro (precipitation/coagulation score) / Serum Pellet (score): 0=negative; 1=very slight precipitation or pellet; 2=minimal precipitation or pellet; 3=moderate precipitation or pellet; 4=significant precipitation or pellet", "description": "as §1, §2"}, "[5]": {"test": "Flocculation in human plasma", "parameters": "key to Plasma Macro (precipitation/coagulation score) / Plasma Micro (precipitation/coagulation score) / Plasma Pellet (score): 0=negative; 1=very slight precipitation or pellet; 2=minimal precipitation or pellet; 3=moderate precipitation or pellet; 4=significant precipitation or pellet", "description": "as §1, §2"}, "[6]": {"tested_on": "normal and Pompe fibroblast cell lines", "test": "Cellular uptake of rhGAA in normal and Pompe fibroblast cell lines", "format": "cell-based", "description": "The relative cellular uptake of ATB200 and Lumizyme® rhGAA were compared using normal and Pompe fibroblast cell lines. […] After 16-hr incubation, external rhGAA was inactivated with TRIS base and cells were washed 3-times with PBS prior to harvest. Internalized GAA measured by 4MU-α-Glucoside hydrolysis and was graphed relative to total cellular protein and the results appear in FIGS. 11A-B."}, "[7]": {"test": "Safety and tolerability in patients with Pompe disease", "format": "in vivo, human", "conditions": "alone and in combination with miglustat", "description": "Mean total GAA protein and miglustat PK results from the first 8 Cohort 1 patients through Visit 9 and the first 2 Cohort 3 patients were assessed."}},
  "data": [
    {"substance": "ATB200: recombinant human acid α-glucosidase expressed in CHO cells with increased content of M6P-bearing N-glycans", "values": [
      {"measurement": "apparent plasma half-life (t1/2)", "setting": "[1]", "value": "~45", "unit": "min"},
      {"measurement": "Kd", "setting": "CIMPR; binding to CIMPR, M6P receptor plate binding assays", "value": "2 to 4", "unit": "nM"},
      {"measurement": "binding to CIMPR", "setting": "CIMPR; versus Lumizyme, FIG. 10A", "value": "bound to CIMPR significantly better than Lumizyme®"},
      {"measurement": "Kuptake", "setting": "[2]", "value": "7 to 14", "unit": "nM"},
      {"measurement": "percent hemolysis", "setting": "whole human blood; 300 μg/ml", "value": "−0.1", "unit": "%"},
      {"measurement": "percent hemolysis", "setting": "whole human blood; 600 μg/ml", "value": "−1.5", "unit": "%"},
      {"measurement": "percent hemolysis", "setting": "whole human blood; 1000 μg/ml", "value": "−1.5", "unit": "%"},
      {"measurement": "OD540 Without Blood", "setting": "whole human blood; Concentration 300 μg/mL", "value": 0.001},
      {"measurement": "OD540 With Blood", "setting": "whole human blood; Concentration 300 μg/mL", "value": 0.016},
      {"measurement": "% Hemolysis", "setting": "whole human blood; Concentration 300 μg/mL", "value": "−0.10", "unit": "%"},
      {"measurement": "OD540 Without Blood", "setting": "whole human blood; Concentration 600 μg/mL", "value": 0.002},
      {"measurement": "OD540 With Blood", "setting": "whole human blood; Concentration 600 μg/mL", "value": 0.003},
      {"measurement": "% Hemolysis", "setting": "whole human blood; Concentration 600 μg/mL", "value": "−1.52", "unit": "%"},
      {"measurement": "OD540 Without Blood", "setting": "whole human blood; Concentration 1000 μg/mL", "value": 0.003},
      {"measurement": "OD540 With Blood", "setting": "whole human blood; Concentration 1000 μg/mL", "value": 0.004},
      {"measurement": "% Hemolysis", "setting": "whole human blood; Concentration 1000 μg/mL", "value": "−1.52", "unit": "%"},
      {"measurement": "lysosome proliferation (LAMP1)", "setting": "Gaa knockout mice; 20 mg/kg every other week, heart, diaphragm, soleus", "value": "reduction in lysosome proliferation in heart, diaphragm and skeletal muscle (soleus) tissue compared to conventional treatment with alglucosidase alfa"},
      {"measurement": "punctate glycogen levels (PAS)", "setting": "Gaa knockout mice; 20 mg/kg every other week, heart, soleus", "value": "reduction in punctate glycogen levels in heart and skeletal muscle (soleus) tissue compared to conventional treatment with alglucosidase alfa"},
      {"measurement": "number of vacuoles in muscle fiber in quadriceps", "setting": "Gaa knockout mice; 20 mg/kg, two IV bolus administrations", "value": "significantly reduced the number of vacuoles in muscle fiber in the quadriceps of Gaa knockout mice"},
      {"measurement": "intracellular accumulation of dystrophin", "setting": "Gaa KO mice", "value": "lowered intracellular accumulation of dystrophin in Gaa KO mice"},
      {"measurement": "Saline Macro (precipitation/coagulation score)", "setting": "[3]; Final concentration 300 μg/mL", "value": 0},
      {"measurement": "Saline Micro (precipitation/coagulation score)", "setting": "[3]; Final concentration 300 μg/mL", "value": 0},
      {"measurement": "Saline Pellet (score)", "setting": "[3]; Final concentration 300 μg/mL", "value": 0},
      {"measurement": "Saline Macro (precipitation/coagulation score)", "setting": "[3]; Final concentration 600 μg/mL", "value": 0},
      {"measurement": "Saline Micro (precipitation/coagulation score)", "setting": "[3]; Final concentration 600 μg/mL", "value": 0},
      {"measurement": "Saline Pellet (score)", "setting": "[3]; Final concentration 600 μg/mL", "value": 0},
      {"measurement": "Saline Macro (precipitation/coagulation score)", "setting": "[3]; Final concentration 1000 μg/mL", "value": 0},
      {"measurement": "Saline Micro (precipitation/coagulation score)", "setting": "[3]; Final concentration 1000 μg/mL", "value": 0},
      {"measurement": "Saline Pellet (score)", "setting": "[3]; Final concentration 1000 μg/mL", "value": 0},
      {"measurement": "Serum Macro (precipitation/coagulation score)", "setting": "[4]; Final concentration 300 μg/mL", "value": 0},
      {"measurement": "Serum Micro (precipitation/coagulation score)", "setting": "[4]; Final concentration 300 μg/mL", "value": 0},
      {"measurement": "Serum Pellet (score)", "setting": "[4]; Final concentration 300 μg/mL", "value": 0},
      {"measurement": "Serum Macro (precipitation/coagulation score)", "setting": "[4]; Final concentration 600 μg/mL", "value": 0},
      {"measurement": "Serum Micro (precipitation/coagulation score)", "setting": "[4]; Final concentration 600 μg/mL", "value": 0},
      {"measurement": "Serum Pellet (score)", "setting": "[4]; Final concentration 600 μg/mL", "value": 0},
      {"measurement": "Serum Macro (precipitation/coagulation score)", "setting": "[4]; Final concentration 1000 μg/mL", "value": 0},
      {"measurement": "Serum Micro (precipitation/coagulation score)", "setting": "[4]; Final concentration 1000 μg/mL", "value": 0},
      {"measurement": "Serum Pellet (score)", "setting": "[4]; Final concentration 1000 μg/mL", "value": 0},
      {"measurement": "pellet after centrifugation", "setting": "[4]; human serum, 14,000 rpm 10 minutes", "value": "no pellets were observed"},
      {"measurement": "precipitation, macroscopic and microscopic", "setting": "[4]; human serum, each ATB200 concentration, 30 minutes at room temperature", "value": "No precipitation was observed macroscopically or microscopically"},
      {"measurement": "Plasma Macro (precipitation/coagulation score)", "setting": "[5]; Final concentration 300 μg/mL", "value": 0},
      {"measurement": "Plasma Micro (precipitation/coagulation score)", "setting": "[5]; Final concentration 300 μg/mL", "value": 0},
      {"measurement": "Plasma Pellet (score)", "setting": "[5]; Final concentration 300 μg/mL", "value": 0},
      {"measurement": "Plasma Macro (precipitation/coagulation score)", "setting": "[5]; Final concentration 600 μg/mL", "value": 0},
      {"measurement": "Plasma Micro (precipitation/coagulation score)", "setting": "[5]; Final concentration 600 μg/mL", "value": 0},
      {"measurement": "Plasma Pellet (score)", "setting": "[5]; Final concentration 600 μg/mL", "value": 0},
      {"measurement": "Plasma Macro (precipitation/coagulation score)", "setting": "[5]; Final concentration 1000 μg/mL", "value": 0},
      {"measurement": "Plasma Micro (precipitation/coagulation score)", "setting": "[5]; Final concentration 1000 μg/mL", "value": 0},
      {"measurement": "Plasma Pellet (score)", "setting": "[5]; Final concentration 1000 μg/mL", "value": 0},
      {"measurement": "pellet after centrifugation", "setting": "[5]; human plasma, 14,000 rpm 10 minutes", "value": "no pellets were observed"},
      {"measurement": "precipitation, macroscopic and microscopic", "setting": "[5]; human plasma, each ATB200 concentration, 30 minutes at room temperature", "value": "No precipitation was observed macroscopically or microscopically"},
      {"measurement": "concentration that saturates cellular receptors", "setting": "[6]; 16-hr incubation", "value": "about 20 nM"},
      {"measurement": "internalization into normal and Pompe fibroblast cells", "setting": "[6]; versus Lumizyme", "value": "internalized to a greater degree than conventional Lumizyme® rhGAA"},
      {"measurement": "safety and tolerability", "setting": "[7]", "value": "safe and well tolerated"}
    ]}
  ]
}
